According to the supplement of paper PMC9170038:

Tested on: MS2 coat protein
Test: apparent KD of MS2 coat protein; designed switch direction (-1 OFF switch, 1 ON switch): 1; higher = weaker reporter binding
How it was run: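 Apparent KD, taken as the median over clusters for each design, was obtained by curve-fitting normalised cluster fluorescence. Designed RNA switches had been transcribed on Illumina chips by stalled E. coli RNA polymerase and titrated with SNAP-549-labelled MS2 coat protein, doubling from 0.7 or 1.5 nM to 3 µM.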

[1] = Eterna round: R95, input ligand: FMN 200 uM
[2] = Eterna round: R95, input ligand: microRNA oligo, concentration not stated
[3] = Eterna round: R95, input ligand: none
[4] = input ligand: microRNA oligo, concentration not stated

Sequence	apparent KD of MS2 coat protein [1] [nM]	apparent KD of MS2 coat protein [2] [nM]	apparent KD of MS2 coat protein [3] [nM]	apparent KD of MS2 coat protein (input ligand: FMN 200 uM) [nM]	apparent KD of MS2 coat protein [4] [nM]	apparent KD of MS2 coat protein (input ligand: none) [nM]
CGGCGCUGUCGAGAGGAUAUGCGGUGAUGGACAUGAGGAUCACCCAUGUUAGCGAUAGCAUCACGGUAGAAGGCUCUUACGCCUG [Soteed Omei mod 23] (puzzle: Same State 2)	91.5	130	205			
GCUAGAAUUAAAGCCAACAUGAGGAUCACCCAUGUAUGUUGGCAGGAUAUCGUUUGCUUUGCAAACGAGAAGGGCUAAACUAGC [JL SSNG3 1.02] (Eterna round: R96, puzzle: Same State NG 3)				114	121	182
AACCCAUCGGGAGGAUAUGGCACCUUAUUGGUGCCAGAAGGUCCAACAUGAGGAUCACCCAUGUGGGAGCCGUCGAAAGACGGC [Fiskers NG1ss - 7] (Eterna round: R96, puzzle: Same State NG 1)				270	66.5	293
GAGAGAUGAUUAGGAUAUCCGGUGAUAAUGAUAGGAGAAGGAAUUGACAUGAGGAUCACCCAUGUGGGAAUAAUCCAGAGAGAG [Parity 23 - Jieux - Same State NG 1] (Eterna round: R96, puzzle: Same State NG 1)				128	54.4	107
UCUUGGUUUUUGCUCGUUUUUUGUGUUGAACAUGAGGAUCACCCAUGUAUUGUACGGUCCAGUUUGAUAAUGGUCCG [JMF 34] (puzzle: Sensor for hsa-mir-208a)	25.6	14.3	27.3			
UACCAUAGUAUAUUGGUGCAAGCUUUUUGACAUGAGGAUCACCCAUGUACUCGUCUUAUGUGCAGUCCGUAGACUGC [JL-shm-2.22 Brourd mod] (puzzle: Sensor for hsa-mir-208a)	57.8	13	54.6			
GGUCCAGCCUGAGCUGGACAAAAGCAUGUACAUGAGGAUCACCCAUGUCAUGUAUAAGCUUUUUGCUCGUCUUAAAA [JL mod - D87 - 11] (puzzle: Sensor for hsa-mir-208a)	20.4	10.5	20			
GUAUAACAUGAGGAUCACCCAUGUCAACAAAGUCGAGGAUAUGGGCAUAUAAUAUAUGAACCAGAAGGCGAAUAUG [Mat - Same State 1 - Mod of UCT - D36] (puzzle: Same State 1)	34.2	37.9	56.7			
GUUACAUGAGGAUCACCCAUGUAUGUGUGGGAGUAAGUGUCUUAGGAUAUCUAUGAGUUAAUUUAAGAGAAGGAAGAUUGUUGU [JMF's solution 74] (Eterna round: R96, puzzle: Same State NG 3)				97.2	63.4	77.5
AACAAUCUAUCUGAGGAUAUCAUGAAAUAAACAUGAGGAUCACCCAUGUGCAGGAAAACUGCAUAUGAGAAGGCAGAUUGAUUGA [salish99_ss2_r3_054] (puzzle: Same State 2)	56	2560	1280			
ACAUGAGACCUAGGAUAUAUUGUACCUACAUGUGACAUGAGGAUCACCCAUGUGGUAAGUAUGACAUAGAAGGAGGAGAUAUGU [Equivalance 93 - Jieux - Same State NG 2] (Eterna round: R96, puzzle: Same State NG 2)				31.5	27.2	54.7
AGGGAGGAUGCAGGAUAUAUAAGACAUGAGGAUCACCCAUGUACCUCGUGGAGAAGAAAGGAGAGAUAGAAGGGUAGUGAGGAA [Default title] (Eterna round: R96, puzzle: Same State NG 2)				285	200	258
